Source: paper PMC6557989 (2019)

Columns and labels:
[1] = biological target: T1, C4b-binding protein (C4BP), human, purified from plasma (human, UniProt P04003 49-597; P20851 18-252, ^125I-labelled in the binding assay on bacteria); experiment: SEC; n = 26 binding sites per C4BP
T1 chain 1: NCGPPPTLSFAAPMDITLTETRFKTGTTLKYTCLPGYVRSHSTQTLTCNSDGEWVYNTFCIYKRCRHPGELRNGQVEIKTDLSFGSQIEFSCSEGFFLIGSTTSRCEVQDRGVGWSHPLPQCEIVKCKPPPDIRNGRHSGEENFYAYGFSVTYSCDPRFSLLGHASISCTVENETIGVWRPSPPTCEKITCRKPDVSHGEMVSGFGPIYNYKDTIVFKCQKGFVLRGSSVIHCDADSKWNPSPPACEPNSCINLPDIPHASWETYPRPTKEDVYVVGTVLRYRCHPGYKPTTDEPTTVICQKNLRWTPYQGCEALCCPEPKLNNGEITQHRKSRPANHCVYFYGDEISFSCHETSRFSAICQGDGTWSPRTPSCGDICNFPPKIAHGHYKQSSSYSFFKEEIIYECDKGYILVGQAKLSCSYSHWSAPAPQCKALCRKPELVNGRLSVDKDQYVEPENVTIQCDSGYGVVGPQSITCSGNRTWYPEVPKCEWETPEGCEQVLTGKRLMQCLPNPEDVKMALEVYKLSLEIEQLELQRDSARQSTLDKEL
T1 chain 2: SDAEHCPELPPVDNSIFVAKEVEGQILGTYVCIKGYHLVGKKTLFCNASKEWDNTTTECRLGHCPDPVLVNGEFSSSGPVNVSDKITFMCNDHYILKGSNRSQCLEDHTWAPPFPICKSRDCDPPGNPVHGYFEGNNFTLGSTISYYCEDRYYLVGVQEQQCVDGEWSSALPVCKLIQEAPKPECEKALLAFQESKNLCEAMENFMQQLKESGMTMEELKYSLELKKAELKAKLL

[2] = biological target: pooled human IgG (IVIG; Kiovig) (human); experiment: SEC; n = 1.1 binding sites per Protein H

B1: Protein H (natural protein)
chain: EGAKIDWQEEYKKLDEDNAKLVEVVETTSLENEKLKSENEENKKNLDKLSKENQGKLEKLELDYLKKLDHEHKEHQKEQQEQEERQKNQEQLERKYQREVEKRYQEQLQKQQQLETEKQISEASRKSLSRDLEASRAAKKDLEAEHQKLEAEHQKLKEDKQISDASRQGLSRDLEASRAAKKELEANHQKLEAEHQKLKEDKQISDASRQGLSRDLEASRAAKKELEANHQKLEAEAKALKEQLAKQAEELAKLRAGKASDSQTPDTKPGNKAVPGKGQAPQAGTKPNQNKAPMKETKRQLPST
modifications: ^125I-labelled in the plate binding assay; Alexa-488 succinimidyl ester-labelled in thermophoresis; unlabelled elsewhere
Kd [1]: 1300 nM
Kd [2]: 78 nM
